Reference: US9044511B2, “Peptide” (Marealis AS, priority 2010, dated 2015)
Where “and” joins values, the source holds several entries; their conditions need not be identical. Equal entries are not always repeated. Where two headings read alike, the source gives them in different places. Peptide text beside a SMILES is read from it.

T1: ACE (Sigma A 6778) (Oryctolagus cuniculus, UniProt P12822)
T1 construct: purchased Sigma A 6778
T1 sequence (P12822 34-1310): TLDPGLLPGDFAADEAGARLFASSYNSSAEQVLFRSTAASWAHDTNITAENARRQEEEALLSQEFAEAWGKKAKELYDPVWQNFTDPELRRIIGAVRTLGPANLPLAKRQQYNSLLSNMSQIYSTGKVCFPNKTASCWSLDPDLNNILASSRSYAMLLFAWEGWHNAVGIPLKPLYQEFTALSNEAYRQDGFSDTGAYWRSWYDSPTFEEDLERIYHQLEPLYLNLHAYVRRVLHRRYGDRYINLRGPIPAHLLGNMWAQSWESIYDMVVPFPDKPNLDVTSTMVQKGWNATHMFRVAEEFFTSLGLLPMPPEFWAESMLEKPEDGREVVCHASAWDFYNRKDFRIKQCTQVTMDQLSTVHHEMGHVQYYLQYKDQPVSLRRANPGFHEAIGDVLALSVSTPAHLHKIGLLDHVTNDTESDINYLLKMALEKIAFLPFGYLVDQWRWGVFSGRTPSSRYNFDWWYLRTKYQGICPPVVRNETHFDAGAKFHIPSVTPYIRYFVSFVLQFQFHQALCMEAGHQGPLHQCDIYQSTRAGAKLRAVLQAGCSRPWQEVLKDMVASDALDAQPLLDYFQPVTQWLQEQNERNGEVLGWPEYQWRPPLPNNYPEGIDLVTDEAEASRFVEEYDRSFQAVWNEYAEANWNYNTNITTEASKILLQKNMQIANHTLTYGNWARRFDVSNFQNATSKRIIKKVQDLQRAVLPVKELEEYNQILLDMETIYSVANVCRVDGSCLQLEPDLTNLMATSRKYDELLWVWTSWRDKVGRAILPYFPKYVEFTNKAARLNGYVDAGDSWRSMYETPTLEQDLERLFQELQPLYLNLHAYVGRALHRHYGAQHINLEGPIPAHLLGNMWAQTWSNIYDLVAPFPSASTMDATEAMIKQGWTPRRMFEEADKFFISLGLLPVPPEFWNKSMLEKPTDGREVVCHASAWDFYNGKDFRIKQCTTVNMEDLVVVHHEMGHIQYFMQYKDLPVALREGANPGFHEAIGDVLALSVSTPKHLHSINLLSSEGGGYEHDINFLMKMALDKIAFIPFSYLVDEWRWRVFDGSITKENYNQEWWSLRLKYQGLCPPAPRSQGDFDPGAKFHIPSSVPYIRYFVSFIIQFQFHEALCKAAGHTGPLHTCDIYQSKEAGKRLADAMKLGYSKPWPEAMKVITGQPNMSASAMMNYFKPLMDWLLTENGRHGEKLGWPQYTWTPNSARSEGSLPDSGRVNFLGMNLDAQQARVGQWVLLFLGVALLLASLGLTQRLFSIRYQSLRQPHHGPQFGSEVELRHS

T2: Angiotensin I-converting enzyme (ACE) (Sigma A 6778) (UniProt P12822 34-1310, limits assumed)
T2 sequence (looked up): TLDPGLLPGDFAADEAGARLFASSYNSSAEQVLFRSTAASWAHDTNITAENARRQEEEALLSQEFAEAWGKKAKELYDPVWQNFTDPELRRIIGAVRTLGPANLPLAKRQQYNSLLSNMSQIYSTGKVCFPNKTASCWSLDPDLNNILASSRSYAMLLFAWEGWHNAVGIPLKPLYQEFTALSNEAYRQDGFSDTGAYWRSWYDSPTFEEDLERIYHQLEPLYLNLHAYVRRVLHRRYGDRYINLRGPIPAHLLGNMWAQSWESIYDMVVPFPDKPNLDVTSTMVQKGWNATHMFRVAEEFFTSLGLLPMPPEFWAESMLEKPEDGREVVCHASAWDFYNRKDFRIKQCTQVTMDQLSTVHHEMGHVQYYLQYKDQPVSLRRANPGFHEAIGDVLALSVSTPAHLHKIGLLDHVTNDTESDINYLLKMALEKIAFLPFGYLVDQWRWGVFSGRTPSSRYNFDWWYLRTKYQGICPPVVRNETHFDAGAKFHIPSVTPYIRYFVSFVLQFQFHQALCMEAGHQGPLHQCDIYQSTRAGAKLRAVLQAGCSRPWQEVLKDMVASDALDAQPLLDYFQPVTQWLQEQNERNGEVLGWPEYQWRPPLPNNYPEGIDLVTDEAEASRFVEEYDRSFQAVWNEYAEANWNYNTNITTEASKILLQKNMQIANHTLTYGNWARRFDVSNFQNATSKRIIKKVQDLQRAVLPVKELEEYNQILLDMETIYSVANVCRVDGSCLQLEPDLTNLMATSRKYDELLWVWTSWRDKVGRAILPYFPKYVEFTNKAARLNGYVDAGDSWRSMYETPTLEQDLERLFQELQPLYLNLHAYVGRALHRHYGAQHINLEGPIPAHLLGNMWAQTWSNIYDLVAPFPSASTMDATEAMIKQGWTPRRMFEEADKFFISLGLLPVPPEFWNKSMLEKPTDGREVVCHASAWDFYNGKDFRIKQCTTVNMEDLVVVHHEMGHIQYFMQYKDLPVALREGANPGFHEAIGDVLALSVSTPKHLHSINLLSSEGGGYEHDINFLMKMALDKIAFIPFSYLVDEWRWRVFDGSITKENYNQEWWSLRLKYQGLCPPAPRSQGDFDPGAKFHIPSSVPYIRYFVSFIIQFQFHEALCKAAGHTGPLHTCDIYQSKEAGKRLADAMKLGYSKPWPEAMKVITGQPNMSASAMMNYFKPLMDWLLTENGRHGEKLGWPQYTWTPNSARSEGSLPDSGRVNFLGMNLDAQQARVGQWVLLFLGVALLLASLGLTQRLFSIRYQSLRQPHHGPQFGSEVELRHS

T3: ACE from rabbit lung acetone extract (rabbit, UniProt P12822 34-1310, limits assumed)
T3 sequence (looked up): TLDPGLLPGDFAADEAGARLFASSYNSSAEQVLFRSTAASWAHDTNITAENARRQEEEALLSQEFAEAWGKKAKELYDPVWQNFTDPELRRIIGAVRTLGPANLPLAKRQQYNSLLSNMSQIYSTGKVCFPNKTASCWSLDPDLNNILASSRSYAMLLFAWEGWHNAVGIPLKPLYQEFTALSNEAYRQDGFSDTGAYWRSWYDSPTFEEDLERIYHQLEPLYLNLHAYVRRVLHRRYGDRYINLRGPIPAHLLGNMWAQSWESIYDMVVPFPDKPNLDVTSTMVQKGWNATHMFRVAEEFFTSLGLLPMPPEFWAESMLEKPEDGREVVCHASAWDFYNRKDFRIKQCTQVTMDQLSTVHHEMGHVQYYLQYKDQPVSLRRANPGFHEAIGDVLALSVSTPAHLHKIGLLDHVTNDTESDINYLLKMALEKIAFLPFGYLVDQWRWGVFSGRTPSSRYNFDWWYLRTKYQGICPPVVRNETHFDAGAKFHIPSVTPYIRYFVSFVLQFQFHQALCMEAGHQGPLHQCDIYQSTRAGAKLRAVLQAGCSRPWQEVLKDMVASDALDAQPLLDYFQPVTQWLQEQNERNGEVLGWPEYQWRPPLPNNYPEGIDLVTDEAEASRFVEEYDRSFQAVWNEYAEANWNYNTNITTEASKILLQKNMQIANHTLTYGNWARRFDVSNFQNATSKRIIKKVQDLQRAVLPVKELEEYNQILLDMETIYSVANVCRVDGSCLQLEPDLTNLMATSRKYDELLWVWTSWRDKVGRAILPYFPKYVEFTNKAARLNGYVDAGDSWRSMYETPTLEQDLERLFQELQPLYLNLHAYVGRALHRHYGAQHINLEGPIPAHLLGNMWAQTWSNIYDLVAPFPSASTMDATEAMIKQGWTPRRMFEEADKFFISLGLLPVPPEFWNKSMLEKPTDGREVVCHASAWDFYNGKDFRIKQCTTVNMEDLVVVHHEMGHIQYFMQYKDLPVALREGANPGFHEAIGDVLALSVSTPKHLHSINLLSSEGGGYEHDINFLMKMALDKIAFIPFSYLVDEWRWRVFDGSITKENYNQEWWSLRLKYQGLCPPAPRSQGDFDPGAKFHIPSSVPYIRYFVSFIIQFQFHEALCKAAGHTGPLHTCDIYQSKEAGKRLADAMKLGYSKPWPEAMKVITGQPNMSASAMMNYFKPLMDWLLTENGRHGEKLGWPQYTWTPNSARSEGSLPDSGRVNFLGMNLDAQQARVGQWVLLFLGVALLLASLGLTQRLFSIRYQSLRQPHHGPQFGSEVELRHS


Key:
ACE (Sigma A 6778) = target: T1, ACE (Sigma A 6778); assay: ACE-inhibitory activity, HHL substrate, hippuric acid by HPLC (method of Dragnes et al. / Cushman and Cheung); type: biochemical
Source text: ACE-inhibitory activity may be assayed using known methods, for example based on the method reported by Cushman and Cheung (1971) by measuring the end product hippuric acid (HA) from the enzymatic reaction between ACE (Sigma A 6778) and the substrate HHL (Sigma H 1635). (CUSHMAN, D. W. & CHEUNG, H. S. (1971). Concentrations of Angiotensin-Converting Enzyme in Tissues of Rat. Biochimica Et Biophysica Acta 250(1), 261-265 and Dragnes et al. J Food Composition and Analysis 2009; 22: 714-17). A different suitable assay is disclosed by Vermeirssen et al. (2002), J. Biochem Biophys. Methods 51 (2002), pages 75-87, which is incorporated herein by reference. Briefly, this is a spectrophotometric method in which ACE inhibition is measured using the substrate furanacryloyl-Phe-Gly-Gly and rabbit lung acetone extract as the ACE source. The IC50 may be determined.
An FSY peptide was analysed via an enzyme assay wherein ACE produces hippuric acid (HA) from the substrate hippuryl-histidine-leucine (HHL). The HA concentration was determined by quantitative HPLC analyses and a decreased concentration was correlated with inhibitory effect. ACE-inhibitory activity was determined based on the method reported by Cushman and Cheung (1971) by measuring the end product hippuric acid (HA) from the enzymatic reaction between ACE (Sigma A 6778) and the substrate HHL (Sigma H 1635), essentially as described in Dragnes et al. J Food Composition and Analysis 2009; 22: 714-17. A 100 μl volume with 2 mM HHL in 100 mM sodium borate buffer pH 8,3 was pre-incubated at 37° C. for 30 minutes with 25 μl inhibitor (FSY peptide diluted in Sodium borate buffer). Then the assay was initiated by adding 50 μl ACE (10 mU). The enzymatic reaction was stopped by addition of 215 μl 1 M HCl.
Quantitative HPLC analyses were performed on a Shimadzu (Shimadzu Corporation, Japan), using a Symmetry-Shield reverse phase C-18 Intelligent Speed column. The HA was eluted at ambient temperature using a mobile phase that consisted of 0.05% aqueous trifluoroacetic acid and HPLC-grade acetonitrile. A 2 min linear gradient was used, beginning after 0.5 min isocratic elution with 5% acetonitrile and ending with 90% acetonitrile. The flow-rate was maintained at 2 mL min ? 7 1 and the UV absorption was measured at 228 nm.
Determinations of IC50 values depend on the precise assay conditions, which makes it difficult to make meaningful comparisons between IC50 values determined in separate assays. A comparative analysis was therefore carried out to compare the ACE-inhibitory activity of the FSY peptide to known ACE-inhibitory peptides. ACE-inhibitory activity was assayed using the method of Dragnes et al. described in Example 1.

[1] = target: T2, Angiotensin I-converting enzyme (ACE) …; assay: cell-based or functional assay
[2] = target: T2, Angiotensin I-converting enzyme (ACE) …; assay: cell-based or functional assay; remark: listed apart in the source
[3] = target: T3, ACE from rabbit lung acetone extract; assay: cell-based or functional assay
[4] = comparative analysis, read-out: IC50 in μg/ml (converted)

| Molecule | IC50 (ACE (Sigma A 6778); [4]) [nM] | IC50 in µM (ACE inhibition, method of Dragnes et al.) [1] [µM] | IC50 in µg/ml (ACE inhibition, method of Dragnes et al.) [1] [µg/mL] | IC50 of ACE inhibition (method of Vermeirssen et al.) [3] [µM] | further results |
| --- | --- | --- | --- | --- | --- |
| N[C@@H](Cc1ccccc1)C(=O)N[C@@H](CO)C(=O)N[C@@H](Cc1ccc(O)cc1)C(=O)O [FSY] (H-Phe-Ser-Tyr-OH; N-terminus and C-terminus assumed) | 2170 | – | – | – | IC50 (ACE (Sigma A 6778); comparative analysis, read-out: IC50): 2200 nM; IC50 (ACE (Sigma A 6778); typical measurements, read-out: IC50 with respect to ACE inhibition, method of Dragnes et al.): ~2200 nM |
| FSY [FSY peptide] | – | 2.2 | 0.9 | ~7.7 | IC50 of ACE inhibition (hippuric acid from HHL, HPLC; method of Dragnes et al.) [2]: ~4 µM and 1.7 µM and ~2.2 µM |
| FTY [FTY peptide] | – | – | – | ~274 | IC50 of ACE inhibition (method of Dragnes et al.) [2]: ~59 µM |

Now from value to molecule, other results behind:

| IC50 (ACE (Sigma A 6778); [4]) [nM] | IC50 in µM (ACE inhibition, method of Dragnes et al.) [1] [µM] | IC50 in µg/ml (ACE inhibition, method of Dragnes et al.) [1] [µg/mL] | IC50 of ACE inhibition (method of Vermeirssen et al.) [3] [µM] | Molecule | further results |
| --- | --- | --- | --- | --- | --- |
| 12800 | – | – | – | CC(C)[C@H](N)C(=O)N[C@@H](Cc1ccc(O)cc1)C(=O)O [VY, reference compound] (H-Val-Tyr-OH; N-terminus and C-terminus assumed) | – |
| – | 3.2 | 1.04 | – | IPP | – |
| – | 13 | 3.6 | – | VY | – |
